This is an account of results in PMC3479203.

For the assay, the target named is C-terminal SPA-tagged RpoB fusion protein (B. subtilis) (UniProt P37870). The experiment in a line: affinity purification with mass spectrometry.
UniProt P37870, sequence (P37870 whole entry, the tested form may be a part): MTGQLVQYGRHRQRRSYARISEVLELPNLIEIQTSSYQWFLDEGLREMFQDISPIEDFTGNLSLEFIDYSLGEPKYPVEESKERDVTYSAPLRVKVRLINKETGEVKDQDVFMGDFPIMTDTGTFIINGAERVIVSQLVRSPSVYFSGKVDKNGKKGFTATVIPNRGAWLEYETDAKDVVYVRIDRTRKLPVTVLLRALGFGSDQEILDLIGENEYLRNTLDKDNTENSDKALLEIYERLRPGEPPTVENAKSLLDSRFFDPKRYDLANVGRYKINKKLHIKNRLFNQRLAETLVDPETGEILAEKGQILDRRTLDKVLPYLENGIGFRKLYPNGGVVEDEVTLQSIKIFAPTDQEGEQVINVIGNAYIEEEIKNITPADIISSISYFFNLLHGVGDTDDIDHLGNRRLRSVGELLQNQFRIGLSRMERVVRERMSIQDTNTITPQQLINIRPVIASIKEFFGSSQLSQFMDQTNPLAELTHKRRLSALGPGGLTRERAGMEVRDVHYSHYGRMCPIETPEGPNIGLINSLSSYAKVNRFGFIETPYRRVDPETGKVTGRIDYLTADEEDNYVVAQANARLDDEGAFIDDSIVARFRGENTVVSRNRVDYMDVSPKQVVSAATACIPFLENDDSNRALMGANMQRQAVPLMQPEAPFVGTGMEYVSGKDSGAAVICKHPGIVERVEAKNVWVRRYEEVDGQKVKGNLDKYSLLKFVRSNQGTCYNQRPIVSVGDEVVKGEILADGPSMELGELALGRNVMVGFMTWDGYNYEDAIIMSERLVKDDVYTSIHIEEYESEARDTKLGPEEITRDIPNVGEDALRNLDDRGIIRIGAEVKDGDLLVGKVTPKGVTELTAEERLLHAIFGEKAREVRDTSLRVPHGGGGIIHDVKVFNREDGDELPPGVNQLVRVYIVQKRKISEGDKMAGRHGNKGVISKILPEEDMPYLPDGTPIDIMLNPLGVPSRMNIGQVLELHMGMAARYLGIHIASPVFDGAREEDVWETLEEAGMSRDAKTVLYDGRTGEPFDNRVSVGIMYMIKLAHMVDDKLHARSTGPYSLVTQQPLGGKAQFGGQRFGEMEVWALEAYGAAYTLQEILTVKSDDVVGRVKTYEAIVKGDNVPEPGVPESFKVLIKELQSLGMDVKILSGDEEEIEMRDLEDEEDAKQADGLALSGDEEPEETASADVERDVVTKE

In turn, “SigA (43 kDa) (from UniProt P06224 1-371) (natural protein)” showed a relative fraction of RNAP bound to SigA, diamide stress of 58.1% and a relative fraction of RNAP bound to SigA, no stress of 61.5%.

B1: Spx (15 kDa) (natural protein)
chain: MVTLYTSPSCTSCRKARAWLEEHEIPFVERNIFSEPLSIDEIKQILRMTEDGTDEIISTRSKVFQKLNVNVESMPLQDLYRLINEHPGLLRRPIIIDEKRLQVGYNEDEIRRFLPRKVRSFQLREAQRLAN
Molecule B1 displayed a relative fraction of RNAP bound to Spx, diamide stress of 21.6% and a relative fraction of RNAP bound to Spx, no stress of 11%.
